Experimental data published in patent US8501695B2, “Tissue kallikrein for the treatment of diseases associated with amyloid protein” (DiaMedica, Inc., priority 2007, dated 2013).

Test: Pharmacokinetic study of intranasal tissue kallikrein (125I-KLK1 tissue concentrations by gamma counting)
Format: in vivo
Conditions: rat
Protocol: The purpose of this study was to quantify the amount of tissue kallikrein (KLK1) reaching the central nervous system and peripheral tissues after intranasal administration to anesthetized rats. At 30 min after KLK1 administration, animals were transcardially perfused with ice-cold saline followed by paraformaldehyde fixative and tissues were dissected. The amount of radiolabeled KLK1 in each tissue sample was quantified by gamma counting and tissue concentrations were calculated using tissue weight and gamma counting of standards of the dosing solutions
Adult male Sprague Dawley rats (n=10, mean 335.4 g±4.57 g SE) were used for this study. Animals were group housed in the Regions Hospital Animal Care Facility with free access to food and water. Animals were kept on a 12 h light cycle. All experimental procedures were approved by the Animal Care and Use Committee at Regions Hospital under IACUC protocol number 08-022.
Tissue kallikrein was sent to Perkin-Elmer for ^125I-labelling (Quote NEX-084, lot C1541583). Non-labeled KLK1 from Sigma (cat#K3627-1KU, lot 018K1441) was also used. Non-labeled KLK1 was dissolved in 1×PBS (10×PBS, Sigma, cat #P5493, lot 027K8405 diluted in sterile water). The average dose was 48.1 μL, 75 μCi, and 2.6 mg.
• a. Prior to anesthesia, each rat was weighed. • b. An anesthesia cocktail was prepared and full, half, and quarter anesthesia doses were calculated according to the animal's weight with a full dose containing 30 mg/kg ketamine, 6 mg/kg xylazine, and 1 mg/kg acepromazine. • c. A 1-cc syringe fitted with a 25 G or 27 G, ½ inch needle was assembled and a full dose was drawn into the syringe for injection. • d. Rats were restrained in a towel as follows. Rats were placed ventral side down in the middle of a hand towel. The towel was then wrapped around the head and shoulders to restrain. Wrapped animals remained ventral side down while the left hind leg was located. • e. The left hind leg was drawn to the side and the needle was inserted just beneath the skin (subcutaneous) above the thigh. After ensuring that the needle was placed subcutaneously (and not intramuscularly), full doses were injected. Rats were placed in holding cages and the injection time noted. Animals should be under within 5 min. • f. Anesthesia was monitored throughout the procedures by assessing reflexes using pinching of the hind paw or tail. If a reflex was present, a half or quarter dose booster was administered as necessary. • g. During drug administration, animals received a half dose booster roughly 20-25 min after initial dose. Intranasal Delivery of ^125I-KLK1 • a. Anesthetized rats were placed on their backs on a heating pad in a metal surgical tray. The heating pad was connected to a thermostat and was automatically regulated to maintain a 37° C. temperature based on continuous measurement from a rectal probe. • b. A 2″×2″ gauze pad was rolled tightly into a pillow, taped together, and under the neck to maintain a correct neck position horizontal with the counter. • c. A lead impregnated shield was placed between the surgical tray and the experimenter for protection against radiation. The dose solution, pipette, pipette tips, and waste receptacle were arranged behind the shield for easy access. • d. A 6 μL drop was loaded into the pipette behind the shield. • e. A cotton swab covered in parafilm was used to occlude one naris completely (the flat part of the swab was pushed gently against the naris to prevent airflow), while the 6 μL drop was expelled slowly from the pipette (held at a 45° angle from the rat's midline), forming a drop on the pipette tip. The drop was lowered onto the open naris to be inhaled. • f. After two minutes, the alternate naris was occluded and a 6 μL drop was administered in the same fashion. • g. A drop was administered as described above every two minutes to alternating nares until a total of 8 drops was delivered (4 to each naris) over 14 min. • h. […]

[1] = 30 min. end point, Avg, outliers removed

B1: tissue kallikrein: serine protease that cleaves kininogen into kallidin; polypeptide SEQ ID NO:1 (Sus scrofa kallikrein 1), KLK1 from Sigma (protein, listed as Sus scrofa)
chain: MWSLVMRLALSLAGTGAAPPIQSRIIGGRECEKDSHPWQVAIYHYSSFQCGGVLVDPKWVLTAAHCKNDNYQVWLGRHNLFENEVTAQFFGVTADFPHPGFNLSLLKNHTKADGKDYSHDLMLLRLQSPAKITDAVKVLELPTQEPELGSTCQASGWGSIEPGPDDFEFPDEIQCVELTLLQNTFCADAHPDKVTESMLCAGYLPGGKDTCMGDSGGPLICNGMWQGITSWGHTPCGSANKPSIYTKLIFYLDWINDTITENP
modifications: 125I label in one form
For B1, the “reaching target regions (frontal cortex, temporal cortex, hippocampus, cerebral blood vessel walls, cervical nodes)” value (30 min) was “effectively reached target regions”, the “concentration in Amygdala” value [1] was 16.2 nM and the “concentration in Anterior Olfactory Nucleus” value [1] was 26.8 nM. For the same molecule, the “concentration in Anterior Trigeminal Nerve” value [1] was 109.1 nM, the “concentration in Axillary Nodes (2)” value [1] was 42.3 nM and the “concentration in Blood Sample” value [1] was 268.4 nM. The “concentration in Carotid Artery” value [1] was 113.4 nM, the “concentration in Cerebellum” value [1] was 10.9 nM and the “concentration in Cervical Nodes (2)” value [1] was 122.3 nM. For the same molecule, the “concentration in Circle of Willis & Basilar Artery” value [1] was 103.3 nM, the “concentration in Dorsal Dura” value [1] was 132.9 nM and the “concentration in Esophagus” value [1] was 85.2 nM. The “concentration in Extra Cortex” value [1] was 13.0 nM, the “concentration in Extra Slice #1” value [1] was 23.6 nM and the “concentration in Extra Slice #2” value [1] was 16.7 nM. The “concentration in Extra Slice #3” value [1] was 13.9 nM, the “concentration in Extra Slice #4” value [1] was 12.0 nM and the “concentration in Extra Slice #5” value [1] was 11.8 nM. The “concentration in Extra Slice #6” value [1] was 11.3 nM, the “concentration in Frontal Cortex” value [1] was 23.9 nM and the “concentration in Heart” value [1] was 22.6 nM. The “concentration in Hippocampus” value [1] was 10.7 nM, the “concentration in Hypothalamus” value [1] was 22.2 nM and the “concentration in Kidney (L, tip)” value [1] was 134.8 nM. The “concentration in Liver (R, superficial lobe)” value [1] was 25.7 nM, the “concentration in Lower Cervical Spinal Cord” value [1] was 7.1 nM and the “concentration in Lumbar Spinal Cord” value [1] was 4.9 nM. For the same molecule, the “concentration in Lung (R, top lobe)” value [1] was 37.2 nM, the “concentration in Medulla” value [1] was 14.9 nM and the “concentration in Midbrain” value [1] was 12.5 nM. The “concentration in Muscle (R, deltoid)” value [1] was 21.4 nM, the “concentration in Occipital Cortex” value [1] was 12.8 nM and the “concentration in Olfactory Bulbs” value [1] was 107.1 nM. For the same molecule, the “concentration in Olfactory Epithelium” value [1] was 24,762.6 nM, the “concentration in Optic Chiasm” value [1] was 29.4 nM and the “concentration in Parietal Cortex” value [1] was 12.1 nM. For the same molecule, the “concentration in Pituitary” value [1] was 60.1 nM, the “concentration in Pons” value [1] was 14.4 nM and the “concentration in Posterior Trigeminal Nerve” value [1] was 51.8 nM. For the same molecule, the “concentration in Renal artery (L)” value [1] was 58.1 nM, the “concentration in Respiratory Epithelium” value [1] was 75,970.0 nM and the “concentration in Septal Nucleus” value [1] was 12.1 nM. The “concentration in Spinal Dura” value [1] was 26.6 nM, the “concentration in Spleen (tip)” value [1] was 72.6 nM and the “concentration in Striatum” value [1] was 9.8 nM. The “concentration in Superficial Nodes (2)” value [1] was 63.1 nM, the “concentration in Temporal Cortex” value [1] was 12.4 nM and the “concentration in Thalamus” value [1] was 10.3 nM. The “concentration in Thoracic Spinal Cord” value [1] was 5.2 nM, the “concentration in Thyroid” value [1] was 1970.6 nM and the “concentration in Trachea” value [1] was 77.7 nM. For the same molecule, the “concentration in Upper Cervical Spinal Cord” value [1] was 23.4 nM and the “concentration in Urine” value [1] was 130.7 nM.
